# According to patent publication US20240400690A1 (BIO THERA SOLUTIONS, published 2024):
# T1: Tim3 (on Tim3-CHO cells) (UniProt Q8TDQ0 22-301, limits assumed)
# T1 construct: whole, on cells
# T1 sequence (looked up): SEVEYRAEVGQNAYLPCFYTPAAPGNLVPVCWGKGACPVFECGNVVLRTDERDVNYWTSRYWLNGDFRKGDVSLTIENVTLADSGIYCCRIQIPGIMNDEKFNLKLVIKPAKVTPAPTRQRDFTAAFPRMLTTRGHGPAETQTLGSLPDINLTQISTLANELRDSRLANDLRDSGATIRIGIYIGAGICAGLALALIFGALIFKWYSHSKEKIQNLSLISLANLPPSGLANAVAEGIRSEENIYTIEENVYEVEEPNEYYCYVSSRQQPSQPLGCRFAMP
# T2: B7-H3 on tumour cells (MDA-MB-468 cells, N87 cells) (UniProt Q5ZPR3 29-534, limits assumed)
# T2 construct: whole, on cells
# T2 sequence (looked up): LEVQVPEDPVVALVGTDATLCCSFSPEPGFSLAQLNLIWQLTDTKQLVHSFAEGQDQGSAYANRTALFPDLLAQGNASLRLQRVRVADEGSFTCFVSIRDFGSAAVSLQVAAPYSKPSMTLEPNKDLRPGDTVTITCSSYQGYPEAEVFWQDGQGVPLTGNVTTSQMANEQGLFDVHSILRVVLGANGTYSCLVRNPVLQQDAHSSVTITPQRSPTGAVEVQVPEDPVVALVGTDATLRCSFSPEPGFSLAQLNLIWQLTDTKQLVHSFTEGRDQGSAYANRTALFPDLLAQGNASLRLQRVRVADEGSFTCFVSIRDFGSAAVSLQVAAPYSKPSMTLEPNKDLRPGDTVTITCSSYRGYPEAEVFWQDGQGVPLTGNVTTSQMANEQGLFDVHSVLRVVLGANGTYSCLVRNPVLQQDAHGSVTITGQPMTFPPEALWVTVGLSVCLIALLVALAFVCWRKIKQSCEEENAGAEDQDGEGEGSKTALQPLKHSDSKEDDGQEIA
# T3: VISTA (on VISTA-CHO cells) (UniProt Q9H7M9 33-311, limits assumed)
# T3 construct: whole, on cells
# T3 sequence (looked up): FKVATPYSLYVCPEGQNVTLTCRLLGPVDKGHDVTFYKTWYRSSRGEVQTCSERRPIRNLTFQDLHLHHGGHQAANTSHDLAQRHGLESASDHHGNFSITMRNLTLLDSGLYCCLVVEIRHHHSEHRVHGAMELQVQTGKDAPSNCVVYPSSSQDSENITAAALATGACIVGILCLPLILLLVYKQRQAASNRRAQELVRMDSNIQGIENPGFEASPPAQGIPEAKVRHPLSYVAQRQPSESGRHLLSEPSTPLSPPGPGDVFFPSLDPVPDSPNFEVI
# T4: Lag3 (on Lag3-CHO cells) (UniProt P18627 23-525, limits assumed)
# T4 construct: whole, on cells
# T4 sequence (looked up): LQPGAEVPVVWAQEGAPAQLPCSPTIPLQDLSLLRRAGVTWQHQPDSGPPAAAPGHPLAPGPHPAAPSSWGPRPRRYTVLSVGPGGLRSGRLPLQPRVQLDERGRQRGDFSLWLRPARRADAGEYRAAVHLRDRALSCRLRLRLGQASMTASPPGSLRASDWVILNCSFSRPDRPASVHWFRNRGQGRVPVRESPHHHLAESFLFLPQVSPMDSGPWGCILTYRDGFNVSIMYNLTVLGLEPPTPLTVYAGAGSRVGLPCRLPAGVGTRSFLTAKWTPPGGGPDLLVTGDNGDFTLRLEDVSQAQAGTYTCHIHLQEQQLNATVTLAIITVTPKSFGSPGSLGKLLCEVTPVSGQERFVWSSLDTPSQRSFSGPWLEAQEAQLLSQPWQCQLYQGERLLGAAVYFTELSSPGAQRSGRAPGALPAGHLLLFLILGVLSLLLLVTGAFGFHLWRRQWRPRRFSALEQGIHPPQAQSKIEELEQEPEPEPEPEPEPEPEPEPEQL
# T5: mouse B7-H3 (SinoBiological, 50973-M08H) (mouse, UniProt Q8VE98 29-244)
# T5 construct: Bought reagent
# T5 sequence (looked up): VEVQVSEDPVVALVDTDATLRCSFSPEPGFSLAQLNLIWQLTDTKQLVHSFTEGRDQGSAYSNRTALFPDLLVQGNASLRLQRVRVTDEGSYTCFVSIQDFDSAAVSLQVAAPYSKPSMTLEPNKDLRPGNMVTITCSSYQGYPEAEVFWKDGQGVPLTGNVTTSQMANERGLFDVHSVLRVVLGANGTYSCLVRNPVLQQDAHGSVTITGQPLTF
# How the values were obtained:
# Tim3 (on Tim3-CHO cells) = target: T1, Tim3 (on Tim3-CHO cells); experiment: flow cytometry on Tim3-CHO cells, PE goat anti-human IgG Fc secondary; blank 0.2% in P3
# Description: (§1) Cells (VISTA-CHO cells, Tim3-CHO cells or Lag3-CHO cells) in logarithmic phase were collected and centrifuged at 1500 rpm for 5 min, and the supernatant was removed. The cells were resuspended in 1×PBS and centrifuged at 1500 rpm for 5 min, and the supernatant was removed, and then the procedure was repeated once. […]
# [1] = target: T2, B7-H3 on tumour cells (MDA-MB-468 …); experiment: flow cytometry on MDA-MB-468 cells, PE goat anti-human IgG Fc secondary; blank 0.9% in the positive gate
# Description: MDA-MB-468 cells in logarithmic phase were collected and centrifuged at 1500 rpm for 5 min, and the supernatant was removed. The cells were resuspended in 1×PBS and centrifuged at 1500 rpm for 5 min, and the supernatant was removed, and then the procedure was repeated once. MDA-MB-468 cells were added to a V-bottom 96-well plate at 50 μL/well (200,000 cells) and centrifuged at 1500 rpm for 5 min, and PBS was discarded; the humanized antibody diluted in gradient (initial concentration of 100 nM, 3-fold gradient dilution, 1×PBS as the vehicle) was added at 100 μL/well; the cells were resuspended, and incubated on ice for 1 h; after the incubation was completed, the cells were centrifuged at 2000 rpm for 5 min, and the supernatant was removed; the cells were resuspended in 1×PBS added at 200 µL/well and centrifuged again and the supernatant was removed, and the procedure was repeated twice; a PE-labeled goat anti-human IgG Fc secondary antibody (Invitrogen, cat #12-4998-82, diluted with 1×PBS at 1:500) was added at 100 μL/well; the cells were resuspended, and incubated for 30 min on ice in the absence of light; after the incubation was completed, the cells were centrifuged at 2000 rpm for 5 min, and the supernatant was removed; the cells were resuspended in 1×PBS added at 200 μL/well and centrifuged again and the supernatant was removed, and the procedure was repeated twice; 1×PBS was then added at 200 μL/well to resuspend the cells; the detection was performed with a cytoflex flow cytometer (Beckman).
# [2] = target: T3, VISTA (on VISTA-CHO cells); experiment: flow cytometry on VISTA-CHO cells, PE goat anti-human IgG Fc secondary; blank 0.1% in P3
# Description: as §1
# Lag3 (on Lag3-CHO cells) = target: T4, Lag3 (on Lag3-CHO cells); experiment: flow cytometry on Lag3-CHO cells, PE goat anti-human IgG Fc secondary; blank 0.5% in P3
# Description: as §1
# [3] = target: T5, mouse B7-H3 (SinoBiological, 50973-M08H); experiment: ELISA, antigen coated at 2 µg/mL; Table 13 prints EC50 as NA
# Description: The day before the experiment, the target antigens cynomolgus monkey B7-H3 (novoprotein CA61), mouse B7-H3 (SinoBiological, 50973-M08H) and hB7-H3-his were each diluted to 2 μg/mL with 1×PBS and added to a ELISA plate (96-well plate) at 100 μL/well (two rows for each antigen), and the wells were coated overnight at 4° C.
Binder,% of cells in gate P3 at 100 nM (Tim3 (on Tim3-CHO cells)),% of cells in positive gate V1-R at 0.411 nM [1],% of cells in positive gate V1-R at 1.23 nM [1],% of cells in positive gate V1-R at 3.7 nM [1],% of cells in positive gate V1-R at 11.11 nM [1],% of cells in positive gate V1-R at 33.33 nM [1],% of cells in positive gate V1-R at 100 nM [1],% of cells in gate P3 at 100 nM [2],% of cells in gate P3 at 100 nM (Lag3 (on Lag3-CHO cells)),binding result [3]
"antibody M1 (antibody, human IgG1, kappa, V domains shown, Chimeric antibody, murine variable regions on the IgG1 constant region; expressed in HEK293F cells; also called chimeric antibody M1) VH: QVQLQQSGPELVKPGASVRISCKASGYTFTDYDINWVQQRPGQGLEWIGWIFPGDDTTKYNEKFKGRATLTADKSSNTAYMQLNGLTSENSAVYFCARSPSFDYWGQGTLVTVSS VL: QIVLTQSPAIMSASPGERVTMTCSASSTIGFMYWYQQKPGTSPKRWIYDTSKLASGVPARFSVSGSGTSYSLTISSMEAEDAATYYCHQRSSYPTFGGGTKLEIKR",0.8%,26.5%,93.1%,98.7%,99.5%,99.7%,99.7%,0.6%,0.9%,–
"antibody V2 (antibody, human IgG1, kappa, V domains shown, Humanized from chimeric antibody M1; expressed in HEK293F cells; also called humanized antibody V2) VH: EVQLVQSGAEVKKSGESLKISCKASGYTFTDYDINWVRQMPGKGLEWIGWIFPGDDTTKYNEKFKGQVTLSADKSTNTAYMQWSSLKASDTAMYYCARSPSFDYWGQGTLVTVSS VL: QIVLTQSPGTLSLSPGERATLSCSASSTIGFMYWYQQKPGQAPRRWIYDTSKLASGVPDRFSVSGSGTDYTLTISRLEPEDFAVYYCHQRSSYPTFGQGTKVEIKR",–,1.2%,1.3%,–,97.8%,99.7%,–,–,–,–
"antibody V1 (antibody, human IgG1, kappa, V domains shown, Humanized from chimeric antibody M1; expressed in HEK293F cells; also called humanized antibody V1) VH: EVQLVQSGAEVKKSGESLKISCKASGYTFTDYDINWVRQMPGKGLEWMGWIFPGDDTTKYNEKFKGQVTISADKSTNTAYLQWSSLKASDTAMYYCARSPSFDYWGQGTLVTVSS VL: QIVLTQSPGTLSLSPGERATLSCSASSTIGFMYWYQQKPGQAPRRWIYDTSKLASGVPDRFSVSGSGTDYTLTISRLEPEDFAVYYCHQRSSYPTFGQGTKVEIKR",–,1.4%,8.6%,92.7%,99.5%,99.6%,99.7%,–,–,–

# The remaining lines, values ahead:
% of cells in gate P3 at 100 nM (Tim3 (on Tim3-CHO cells)),% of cells in positive gate V1-R at 0.411 nM [1],% of cells in positive gate V1-R at 1.23 nM [1],% of cells in positive gate V1-R at 3.7 nM [1],% of cells in positive gate V1-R at 11.11 nM [1],% of cells in positive gate V1-R at 33.33 nM [1],% of cells in positive gate V1-R at 100 nM [1],% of cells in gate P3 at 100 nM [2],% of cells in gate P3 at 100 nM (Lag3 (on Lag3-CHO cells)),binding result [3],Binder
0.4%,1.1%,4%,–,97.2%,98.8%,99.3%,0.2%,0.3%,–,"control antibody M30-H1-L4 (antibody, human IgG1, kappa, V domains shown, Control anti-B7-H3 antibody; also called HIL4) VH: QVQLVQSGAEVKKPGSSVKVSCKASGYTFTNYVMHWVRQAPGQGLEWMGYINPYNDDVKYNEKFKGRVTITADESTSTAYMELSSLRSEDTAVYYCARWGYYGSPLYYFDYWGQGTLVTVSS VL: EIVLTQSPATLSLSPGERATLSCRASSRLIYMHWYQQKPGQAPRPLIYATSNLASGIPARFSGSGSGTDFTLTISSLEPEDFAVYYCQQWNSNPPTFGQGTKVEIKR"
–,36.8%,86.4%,94%,97.2%,98.9%,99.6%,–,–,no binding,"antibody V3 (antibody, human IgG1, kappa, V domains shown, Humanized from chimeric antibody M1; expressed in HEK293F cells; also called humanized antibody V3) VH: EVQLVQSGAEVKKSGESLKISCKASGYTFTDYDINWVRQMPGKGLEWIGWIFPGDDTTKYNEKFKGQVTLSADKSTNTAYMQWSSLKASDTAMYYCARSPSFDYWGQGTLVTVSS VL: QIVLTQSPGTLSLSPGERATLSCSASSTIGFMYWYQQKPGQAPRRWIYDTSKLASGVPDRFSGSGSGTDYTLTISRLEPEDFAVYYCHQRSSYPTFGQGTKVEIKR"
–,31.6%,73.5%,92.6%,99.3%,99.6%,99.7%,–,–,–,"antibody V5 (antibody, human IgG1, kappa, V domains shown, Humanized from chimeric antibody M1; expressed in HEK293F cells; also called humanized antibody V5) VH: QVQLVQSGAEVKKPGASVKVSCKASGYTFTDYDINWVRQAPGQRLEWIGWIFPGDDTTKYNEKFKGRATLTADKSASTAYMELSSLRSEDTAVYYCARSPSFDYWGQGTLVTVSS VL: QIVLTQSPSSLSASVGDRVTITCSASSTIGFMYWYQQKPGKAPKRWIYDTSKLASGVPSRFSVSGSGTDYTLTISSLQPEDFATYYCHQRSSYPTFGQGTKVEIKR"
